We go through eight molecules from patent publication US20150344570A1 (published 2015).

Experiment [1] concerns the target T1, FcγRIIa H (FcγRIIa, allotype with His at position 131), extracellular domain with C-terminal His tag (human, UniProt P12318 34-217).
T1 construct: extracellular domain; also called FcgRIIa H; 2aH; not shown: His tag at the C terminus
T1 sequence (looked up): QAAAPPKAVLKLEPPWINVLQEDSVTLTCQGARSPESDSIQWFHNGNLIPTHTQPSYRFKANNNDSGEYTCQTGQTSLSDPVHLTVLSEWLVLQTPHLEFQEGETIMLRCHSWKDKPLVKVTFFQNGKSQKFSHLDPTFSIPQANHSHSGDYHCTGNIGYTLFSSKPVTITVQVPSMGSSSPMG
Briefly: SPR (Biacore); He/Con_2aH divided by He/Con_2b (FcγRIIb).

The target of experiment [2] is T2, FcγRIIb, extracellular domain with C-terminal His tag (human, UniProt P31994 43-217).
T2 construct: extracellular domain; also called FcgRIIb; 2b; not shown: His tag at the C terminus
T2 sequence (looked up): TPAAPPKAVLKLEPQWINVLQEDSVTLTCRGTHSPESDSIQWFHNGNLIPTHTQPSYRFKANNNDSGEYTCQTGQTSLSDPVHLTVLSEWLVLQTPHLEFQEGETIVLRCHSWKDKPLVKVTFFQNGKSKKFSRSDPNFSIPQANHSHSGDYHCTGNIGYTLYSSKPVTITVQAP
The experiment in a line: SPR (Biacore), relative binding vs GpH7-A5/GpH7-B3/GpL16-k0.

The target of experiment [3] is T1, FcγRIIa H (FcγRIIa, allotype with His …). The description is as above.

B1: GpH7-A5/GpH7-B3 variant L328_09D/GpL16-k0 (antibody, human IgG1, kappa)
heavy 1: not shown
heavy 2: not shown
light: DIVMTQSPLSLPVTPGEPASISCQASESLVHSNRNTYLHWYLQKPGQSPQLLIYKVSNRFSGVPDRFSGSGSGTDFTLKISRVEAEDVGVYYCSQNTHVPPTFGQGTKVEIERTVAAPSVFIFPPSDEQLKSGTASVVCLLNNFYPREAKVQWKVDNALQSGNSQESVTEQDSKDSTYSLSSTLTLSKADYEKHKVYACEVTHQGLSSPVTKSFNRGEC
notes: Heterodimerized anti-glypican-3 IgG1; mutation in one H chain only; also called He Ab
In the case of B1, the “He_2aH/2b (IIaH/IIb)” value in experiment [1] is 0.29 ratio. For the same molecule, the He/Con_2b in experiment [2] is 199 % of HeCon Ab (=100). Also, in experiment [3], the He/Con_2aH was 58.5 % of HeCon Ab (=100).

B2: GpH7-A5/GpH7-B3 variant P331_16H/GpL16-k0 (antibody, human IgG1, kappa)
heavy 1: not shown
heavy 2: not shown
light: DIVMTQSPLSLPVTPGEPASISCQASESLVHSNRNTYLHWYLQKPGQSPQLLIYKVSNRFSGVPDRFSGSGSGTDFTLKISRVEAEDVGVYYCSQNTHVPPTFGQGTKVEIERTVAAPSVFIFPPSDEQLKSGTASVVCLLNNFYPREAKVQWKVDNALQSGNSQESVTEQDSKDSTYSLSSTLTLSKADYEKHKVYACEVTHQGLSSPVTKSFNRGEC
notes: as for B1
As to B2, the “He_2aH/2b (IIaH/IIb)” value in experiment [1] came to 0.73 ratio. For the same molecule, the He/Con_2b in experiment [2] is 116 % of HeCon Ab (=100). The He/Con_2aH in experiment [3] is 84.5 % of HeCon Ab (=100).

B3: GpH7-A5/GpH7-B3 variant N325_13S/GpL16-k0 (antibody, human IgG1, kappa)
heavy 1: not shown
heavy 2: not shown
light: DIVMTQSPLSLPVTPGEPASISCQASESLVHSNRNTYLHWYLQKPGQSPQLLIYKVSNRFSGVPDRFSGSGSGTDFTLKISRVEAEDVGVYYCSQNTHVPPTFGQGTKVEIERTVAAPSVFIFPPSDEQLKSGTASVVCLLNNFYPREAKVQWKVDNALQSGNSQESVTEQDSKDSTYSLSSTLTLSKADYEKHKVYACEVTHQGLSSPVTKSFNRGEC
notes: as for B1
In the case of B3, the “He_2aH/2b (IIaH/IIb)” value in experiment [1] worked out at 0.45 ratio. Also, the He/Con_2b in experiment [2] was 177 % of HeCon Ab (=100). In addition, in experiment [3], the He/Con_2aH was 79.7 % of HeCon Ab (=100).

B4: GpH7-A5/GpH7-B3 variant P331_20W/GpL16-k0 (antibody, human IgG1, kappa)
heavy 1: not shown
heavy 2: not shown
light: DIVMTQSPLSLPVTPGEPASISCQASESLVHSNRNTYLHWYLQKPGQSPQLLIYKVSNRFSGVPDRFSGSGSGTDFTLKISRVEAEDVGVYYCSQNTHVPPTFGQGTKVEIERTVAAPSVFIFPPSDEQLKSGTASVVCLLNNFYPREAKVQWKVDNALQSGNSQESVTEQDSKDSTYSLSSTLTLSKADYEKHKVYACEVTHQGLSSPVTKSFNRGEC
notes: as for B1
B4: the “He_2aH/2b (IIaH/IIb)” value in experiment [1] came to 0.75 ratio. The He/Con_2b in experiment [2] was 111 % of HeCon Ab (=100). The He/Con_2aH in experiment [3] was 82.8 % of HeCon Ab (=100).

B5: GpH7-A5/GpH7-B3 variant N325_16H/GpL16-k0 (antibody, human IgG1, kappa)
heavy 1: not shown
heavy 2: not shown
light: DIVMTQSPLSLPVTPGEPASISCQASESLVHSNRNTYLHWYLQKPGQSPQLLIYKVSNRFSGVPDRFSGSGSGTDFTLKISRVEAEDVGVYYCSQNTHVPPTFGQGTKVEIERTVAAPSVFIFPPSDEQLKSGTASVVCLLNNFYPREAKVQWKVDNALQSGNSQESVTEQDSKDSTYSLSSTLTLSKADYEKHKVYACEVTHQGLSSPVTKSFNRGEC
notes: as for B1
Turning to B5, the “He_2aH/2b (IIaH/IIb)” value in experiment [1] worked out at 0.68 ratio. Besides, the He/Con_2b in experiment [2] was 70.1 % of HeCon Ab (=100). Moreover, in experiment [3], the He/Con_2aH was 48 % of HeCon Ab (=100).

B6: GpH7-A5/GpH7-B3 variant L328_10E/GpL16-k0 (antibody, human IgG1, kappa)
heavy 1: not shown
heavy 2: not shown
light: DIVMTQSPLSLPVTPGEPASISCQASESLVHSNRNTYLHWYLQKPGQSPQLLIYKVSNRFSGVPDRFSGSGSGTDFTLKISRVEAEDVGVYYCSQNTHVPPTFGQGTKVEIERTVAAPSVFIFPPSDEQLKSGTASVVCLLNNFYPREAKVQWKVDNALQSGNSQESVTEQDSKDSTYSLSSTLTLSKADYEKHKVYACEVTHQGLSSPVTKSFNRGEC
notes: as for B1
For the molecule B6, the “He_2aH/2b (IIaH/IIb)” value in experiment [1] was 0.32 ratio. For the same molecule, in experiment [2], the He/Con_2b was 172 % of HeCon Ab (=100). Moreover, the He/Con_2aH in experiment [3] is 55.5 % of HeCon Ab (=100).

B7: GpH7-A5/GpH7-B3 variant P331_03V/GpL16-k0 (antibody, human IgG1, kappa)
heavy 1: not shown
heavy 2: not shown
light: DIVMTQSPLSLPVTPGEPASISCQASESLVHSNRNTYLHWYLQKPGQSPQLLIYKVSNRFSGVPDRFSGSGSGTDFTLKISRVEAEDVGVYYCSQNTHVPPTFGQGTKVEIERTVAAPSVFIFPPSDEQLKSGTASVVCLLNNFYPREAKVQWKVDNALQSGNSQESVTEQDSKDSTYSLSSTLTLSKADYEKHKVYACEVTHQGLSSPVTKSFNRGEC
notes: as for B1
With B7, in experiment [1], the “He_2aH/2b (IIaH/IIb)” value was 0.7 ratio. Further, in experiment [2], the He/Con_2b was 119 % of HeCon Ab (=100). The He/Con_2aH in experiment [3] is 82.5 % of HeCon Ab (=100).

B8: GpH7-A5/GpH7-B3 variant N325_14T/GpL16-k0 (antibody, human IgG1, kappa)
heavy 1: not shown
heavy 2: not shown
light: DIVMTQSPLSLPVTPGEPASISCQASESLVHSNRNTYLHWYLQKPGQSPQLLIYKVSNRFSGVPDRFSGSGSGTDFTLKISRVEAEDVGVYYCSQNTHVPPTFGQGTKVEIERTVAAPSVFIFPPSDEQLKSGTASVVCLLNNFYPREAKVQWKVDNALQSGNSQESVTEQDSKDSTYSLSSTLTLSKADYEKHKVYACEVTHQGLSSPVTKSFNRGEC
notes: as for B1
Regarding B8, the “He_2aH/2b (IIaH/IIb)” value in experiment [1] stood at 0.68 ratio. In addition, the He/Con_2b in experiment [2] was 91.6 % of HeCon Ab (=100). The He/Con_2aH in experiment [3] is 62.7 % of HeCon Ab (=100).
